{
  "source": "the DeepSol protein solubility set",
  "data": [
    {"assay": "soluble on expression in E. coli; label from the status in PepcDB or PDB records", "values": [
      {"sequence": "MSTPFGLDLGNNNSVLAVARNRGIDIVVNEVSNRSTPSVVGFGPKNRYLGETGKNKQTSNIKNTVANLKRIIGLDYHHPDFEQESKHFTSKLVELDDKKTGAEVRFAGEKHVFSATQLAAMFIDKVKDTVKQDTKANITDVCIAVPPWYTEEQRYNIADAARIAGLNPVRIVNDVTAAGVSYGIFKTDLPEGEEKPRIVAFVDIGHSSYTCSIMAFKKGQLKVLGTACDKHFGGRDFDLAITEHFADEFKTKYKIDIRENPKAYNRILTAAEKLKKVLSANTNAPFSVESVMNDVDVSSQLSREELEELVKPLLERVTEPVTKALAQAKLSAEEVDFVEIIGGTTRIPTLKQSISEAFGKPLSTTLNQDEAIAKGAAFICAIHSPTLRVRPFKFEDIHPYSVSYSWDKQVEDEDHMEVFPAGSSFPSTKLITLNRTGDFSMAASYTDITQLPPNTPEQIANWEITGVQLPEGQDSVPVKLKLRCDPSGLHTIEEAYTIEDIEAGSDTKTVKKDDLTIVAHTFGLDAKKLNELIEKENEMLAQDKLVAETEDRKNTLEEYIYTLRGKLEEEYAPFASDAEKTKLQGMLNKAEEWLYDEGFDSIKAKYIAKYEELASLGNIIRGRYLAKEEEKKQAIRSKQEASQMAAMAEKLAAQRKAEAEKKEEKKDTEGDVDMD", "soluble on expression in E. coli": "soluble"},
      {"sequence": "MAHHHHHHMGTLEAQTQGPGSMTYETILVERDQRVGIITLNRPQALNALNSQVMNEVTSAATELDDDPDIGAIIITGSAKAFAAGADIKEMADLTFADAFTADFFATWGKLAAVRTPTIAAVAGYALGGGCELAMMCDVLIAADTAKFGQPEIKLGVLPGMGGSQRLTRAIGKAKAMDLILTGRTMDAAEAERSGLVSRVVPADDLLTEARATATTISQMSASAARMAKEAVNRAFESSLSEGLLYERRLFHSAFATEDQSEGMAAFIEKRAPQFTHR", "soluble on expression in E. coli": "soluble"},
      {"sequence": "MNWKQEFSRWLSYAELDAELKEQLENMKQDEKKIEDSFYKNLEFGTGGMRGELGAGTNRLNVYTVRKATQGLAKFIEKLGEEAKKRGVVVAYDSRHKSPEFAMEVAATLGAHGITTYVFESLRPTPVLSFAVRHLHTVSGIVLTASHNPPEYNGYKVYGEDGGQLPPKEADELISYVNAVEDELTVEVADVEQLKADGLLHMIGQEVDDAYAAELNNVIINKEMVQKVGKDLKIVFTPLHGTSNLSVRRGLAEVGFTDVTVVKEQELPDPNFSTVKSPNPEEHAAFEYAIRDGEKVGADVLIATDPDADRLGVAVRNHDGEFQVLTGNQTGALMLDYLLSQKKENGTLPENGVVLKTIVTSEIGRTIAKAYGLDTVDTLTGFKFIGEKIKQYEESGQYEFQFGYEESYGYLIRPFCRDKDAVQSVLFACEVAAYYKSQGKTLYDGLLEVFEKYGFFREDLVSLTLKGKDGAEQIQEMMATFRENPPKEVAGLTVVAVEDYKASIITSLQDGHKEEIHLPKSNVLKYQLEDGSWFCLRPSGTEPKIKFYFGVQDNSLQNSEQKLLTIKEDIMNRL", "soluble on expression in E. coli": "not soluble"},
      {"sequence": "MTKKHREGLSLRAFAKKMRVSPNAVVSRFKTGKFDQALFEDGSVNEALATAIWNENPTKRPAPFLAPDGQPRTKIKQVSTEGANEYEIKLERMQVALESEKIALERLRETTVDREEVKRAAREFGRAHRDAMLNFPHRFGASIAAQVGCDAASLIGAIDYYIRKALLEAVHIPVPFHDPHSPELENLQETNNG", "soluble on expression in E. coli": "not soluble"},
      {"sequence": "MGSDKIHHHHHHMTYPKRIPINAWSEVHRVARPLIITFDAYNTLYATKLPVMEQYCIVGRKYGIKANPSTLTNNFPHVFKKLKEDYPQYGKYSGIKPEQWWSILIRNVFAPNEIPDEMINEILMRFEGFDSYFVYPDLIKFLKDLKSRHPDVILGIVSNTDPIFYKLLKNIGLFETFSGHIYLSYELNLAKPDRAIFQYALDDIISKQPHLLEKYTREEILQHCFHIGDELKNDLEGAEAAGWTGILLDRNDKYGFLSNSISKPMRDEYKLSIDKIDNNSINTWEANTKQTDTLQLSERKYVVSNLEVLEELFP", "soluble on expression in E. coli": "not soluble"},
      {"sequence": "MDHGRRRLHSGSTPRGGERPAKRERISVEEQQSQEIRNLKRKLEEARQREDKYIKNEQLHHTAMRSKQQRIERMEKSMESTNRKMYATQCRLNDMENIYDDLEMESKIMADFIDHYYDSRNITEEDRDELQDKLDEEAANYRDLEDRIKEVRHRDRYMKTVETERKRTTFYRKKMLELAEQLQFEQQEVTGETPLWKLCEICAHQFSHSDEYVPRVLVCGHTLCTSCIEKLDVGDGIRCPFCRTWTNMKRIEALPKNFQILQM", "soluble on expression in E. coli": "not soluble"},
      {"sequence": "MSLSSLLIDLKGKELEQEEVELLSHPLVAGLILFTRNFENREQIQELIRSVRQRVKKPLLITVDQEGGRVQRFRDGFTMLPSMQAFQETLSATEQVSFAKEAGWQMAAEMIALDIDLSFAPVLDLGHECRAIGDRSFSSDVKSAVNLATAFIDGMHQAGMASTGKHFPGHGHVLADSHLETPYDDRTKEEIFSGDLQPFQQLISQNKLDAIMPAHVIYSQCDSQPASGSKYWLKEILRKKLNFQGTIFSDDLGMKGAGVMGNFVERSKKALNAGCDLLLLCNEREGVIQVLDNLKLTENQPHFMARQARLQSLFKRRVINWNDLISDQRWRLNYQKLADIQSRWLDIQAAKNDEGGSHHHHHH", "soluble on expression in E. coli": "soluble"},
      {"sequence": "MSYTAEMIIRLREEKKEMRNRDFAISIGISEAELIAAYCTIGKAKRLKTDIAVLLENAPQLGTVMALTRNEHAVHEITGCFEKIVQNQHVLLTLGEIDLRIFAKQWKFCFEYEAIVLGKPTKSLHFFDQNGVAIFKLYSKDTTNMAEWNKLVDKLLHEDQSPVLDIPPKAIPNKRDIVELNVEEFRDRWRKMTDVHQLHGIISELKINRHDAVKYVGNEFAHELKREAIEIMLNQVAQQEVPIMCFVGNKGCIQIFSGQIKNIKQMGPWLNVLDKKFHLHLLIPGIKNVWCVRKPTSDGHVTSLEVFDENDEMIIQFFGMRKEGQKEREDWRSLLNSLPQSHAVAVA", "soluble on expression in E. coli": "not soluble"},
      {"sequence": "MKLVLFDCDGTLVDSAGLIHAVMSETFADFGKPRPDISETKAIIGLTLDIAIARMLGRAHVDDEAAAMALRYKENYHPLRERFENATPLFDGIASLIDMLSKRDDVLIGAVTGKGRRGLTQILETHGFADHFIVSRTADDCPSKPHPAMVMECCHETGMVPADTIVIGDAIYDMQMAKAAGAKAIGVAWGYASVEDLWKAGADAVVNHPNDIPAYVPADITE", "soluble on expression in E. coli": "not soluble"},
      {"sequence": "MGKNLQALAQLYKNALLNDVLPFWENHSLDSEGGYFTCLDRQGKVYDTDKFIWLQNRQVWTFSMLCNQLEKRENWLKIARNGAKFLAQHGRDDEGNWYFALTRGGEPLVQPYNIFSDCFAAMAFSQYALASGEEWAKDVAMQAYNNVLRRKDNPKGKYTKTYPGTRPMKALAVPMILANLTLEMEWLLPQETLENVLAATVQEVMGDFLDQEQGLMYENVAPDGSHIDCFEGRLINPGHGIEAMWFIMDIARRKNDSKTINQAVDVVLNILNFAWDNEYGGLYYFMDAAGHPPQQLEWDQKLWWVHLESLVALAMGYRLTGRDACWAWYQKMHDYSWQHFADPEYGEWFGYLNRRGEVLLNLKGGKWKGCFHVPRAMYLCWQQFEALS", "soluble on expression in E. coli": "soluble"},
      {"sequence": "MGSDKIHHHHHHMLQFQPPGFGHKLIHTSLGAMVYYTQTNTPWAFADTEDLPPLLFLHNFGGGASAYEWSKVYPAFASNYHILAPDLIGWGESAHPVRDYKIRDYLSTIAEFIIETCRQPVTVVASSLTAAFAIRLAIVQPNLFKALFLVSPSGFDDFGQGAGRRLPLSVINTPLLDNFIYMLGAENEIAVRNFLQSFLFAKSERVSQEIVDAYLTSAQQPNAKFSALAFLRGDLYFDLSLYIQQLTIPTVMFWGEKAQFTNIKLGQRLANLNQRAIQDFYAIADAGILPHLEIPEVVIGLLQRYLR", "soluble on expression in E. coli": "not soluble"},
      {"sequence": "PNKDVKIVKEVLLYKGSPFTGNIIMNTEDQKDGYIGGISLKNGHLDGLSELKNDRQGQHMRFTVVGGKFDGELIMNDPSQNTYIMLDINKGAIVKYLADIQGVYKYDLNFVNNLANGSMEAQGQIFTFKNGIAKGPQGQELKLTLNPATGDLEMEAFVNGKAAGKQTIPNVLTPQYLESFLFQSITDTNN", "soluble on expression in E. coli": "not soluble"},
      {"sequence": "STDDKDVLRDVWFGRIPTCFTLYQDEITEREAEPYYLLLPRVSYLTLVTDKVKKHFQKVMRQEDVSEIWFEYEGTPLKWHYPIGLLFDLLASSSALPWNITVHFKSFPEKDLLHCPSKDAVEAHFMSCMKEADALKHKSQVINEMQKKDHKQLWMGLQNDRFDQFWAINRKLMEYPPEENGFRYIPFRIYQTTTERPFIQKLFRPVAADGQLHTLGDLLREVCPSAVAPEDGEKRSQVMIHGIEPMLETPLQWLSEHLSYPDNFLHISIVPQPTD", "soluble on expression in E. coli": "soluble"},
      {"sequence": "MPVDRILEAELAVEQKSDQGVEGPGGTGGSGSSPNDPVTNICQAADKQLFTLVEWAKRIPHFSSLPLDDQVILLRAGWNELLIASFSHRSIDVRDGILLATGLHVHRNSAHSAGVGAIFDRVLTELVSKMRDMRMDKTELGCLRAIILFNPDAKGLSNPSEVEVLREKVYASLETYCKQKYPEQQGRFAKLLLRLPALRSIGLKCLEHLFFFKLIGDTPIDTFL", "soluble on expression in E. coli": "soluble"},
      {"sequence": "MQSLDPLFARLSRSKFRSRFRLGMKERQYCLEKGAPVIEQHAADFVAKRLAPALPANDGKQTPMRGHPVFIAQHATATCCRGCLAKWHNIPQGVSLSEEQQRYIVAVIYHWLVVQMNQP", "soluble on expression in E. coli": "soluble"},
      {"sequence": "GSHMAPADYFRVLVQQFEVQLQQYRQQIEELENHLATQANNSHITPQDLSMAMQKIYQTFVALAAQLQSIHENVKVLKEQYLSYRKMFLGDAG", "soluble on expression in E. coli": "soluble"},
      {"sequence": "MRRFKQQLAGRPAAAEIPLKRWLGVASHRCPAGPKRRRHDVMTCPSTQLRLAPITTGLVRRNPRILLSGPHQPTLVRYLEGWPKRWNGSRTFLIQFAQDGKDLARFPSDAFDFAVVQAPEAEDLDLVVRQLIRVARQGLITRRILR", "soluble on expression in E. coli": "not soluble"},
      {"sequence": "MAQKKPKRNLSALKRHRQSLKRRLRNKAKKSAIKTLSKKAIQLAQEGKAEEALKIMRKAESLIDKAAKGSTLHKNAAARRKSRLMRKVRQLLEAAGAPLIGGGLSA", "soluble on expression in E. coli": "soluble"},
      {"sequence": "MAHHHHHHMGTLEAQTQGPGSMSDIPSDLHYTAEHEWIRRSGDDTVRVGITDYAQSALGDVVFVQLPVIGTAVTAGETFGEVESTKSVSDLYAPISGKVSEVNSDLDGTPQLVNSDPYGAGWLLDIQVDSSDVAALESALTTLLDAEAYRGTLTE", "soluble on expression in E. coli": "soluble"},
      {"sequence": "MKKFCLSYSSGKDCLLAMDRLVQAGNQPVALVTTLSDEINRSWFHGIPISVLEAAAEALDLPLVISHNNETNYTEKVVEALQETKKLGAETVCFGDIDIEQNGAWDRQVALSAGLEPQLPLWQENREALVKEFLAKGYTAIIKTVSKEAGIPIKFLGEPLNETFITYLKEHQLDICGENGEYHTLVIDGPLFKKRLNYYTSGIYESPYAYSLIIDALEHHHHHH", "soluble on expression in E. coli": "soluble"},
      {"sequence": "GGNANMFMNLSREAQSETRRHHYLSSSQKEAKDFAMFADTSNPTLVRTIGVRNNLSLITDPRTGGTALMTDQSIPRKFVLGSKSSAPGENAKVFRDEMRAAGHNVSTKQAGELLREVQSDSDDDNFPDPDDFIMSRFTG", "soluble on expression in E. coli": "not soluble"},
      {"sequence": "MGSDKIHHHHHHMRVELNGILPVCPCSGRGYLDNARLFRQIEPIVRKQSPFMNSRSLLCLLAVSLCASPVWADTVWMKNGDRLSGKIKVFDGGKLLLETPYGGSIALDWKQVQTLESDQEMLVKQDAYSGEKAKSLKAAEAGKVTLANGDSPKTVALASIEQIMKPKPLVEDFVWKGNVDVALDYKRAENDTDDYDVGFKTTARHGRWRHNAEGEYNRETKDDVTTTNNWSAEYALDRFITDKWFWQGRAEYKRDHIEDLARQRTVGTGPGYQFWDDELGAFSLGSLINRTDFEYRDGGKDNFYSAAVKWDYTRYLIGKNVQLFTNGEFAKPLGGVADYSLDAEVGLRYKVTEWASLNLKAEKDIITGTRESDLDKTRYTAGFGVTW", "soluble on expression in E. coli": "not soluble"}
    ]}
  ]
}
